Results on one molecule are retold here after publication PMC8406323, “Cellular 5′-3′ mRNA Exoribonuclease XRN1 Inhibits Interferon Beta Activation and Facilitates Influenza A Virus Replication” (mBio, 2021).

The assay concerns the target T1, GST-XRN1-C-terminal region (aa 1174–1706) fusion protein (human, UniProt Q8IZH2 1174-1706).
T1 construct: XRN1, human, C-terminal region aa 1174-1706 (vector pGEX-6P); Held on glutathione beads in the pull-down; also called GST-tagged-XRN1 (aa 1174–1706); source: E. coli BL21(DE3), purified (glutathione Sepharose 4B)
T1 sequence: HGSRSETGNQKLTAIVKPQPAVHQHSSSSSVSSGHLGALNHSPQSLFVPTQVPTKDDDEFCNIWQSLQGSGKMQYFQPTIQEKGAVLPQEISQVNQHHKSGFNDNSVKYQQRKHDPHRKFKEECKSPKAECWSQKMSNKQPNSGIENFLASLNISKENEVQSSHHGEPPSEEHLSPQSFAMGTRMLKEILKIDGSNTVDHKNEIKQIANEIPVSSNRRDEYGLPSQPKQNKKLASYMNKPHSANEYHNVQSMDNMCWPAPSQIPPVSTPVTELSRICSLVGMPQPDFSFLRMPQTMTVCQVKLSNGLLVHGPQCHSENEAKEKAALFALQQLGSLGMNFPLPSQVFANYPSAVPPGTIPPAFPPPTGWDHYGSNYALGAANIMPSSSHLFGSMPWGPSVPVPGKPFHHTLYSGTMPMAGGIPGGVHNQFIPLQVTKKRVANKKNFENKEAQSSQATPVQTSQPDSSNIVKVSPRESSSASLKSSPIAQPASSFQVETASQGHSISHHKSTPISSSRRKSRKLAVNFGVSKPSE
As to the kind of experiment: pull-down. The note with it: both partners purified.

B1: His-NS1 from PR8 (natural protein)
chain: MDPNTVSSFQVDCFLWHVRKRVADQELGDAPFLDRLRRDQKSLRGRGSTLGLDIETATRAGKQIVERILKEESDEALKMTMASVPASRYLTDMTLEEMSRDWSMLIPKQKVAGPLCIRMDQAIMDKNIILKANFSVIFDRLETLILLRAFTEEGAIVGEISPLPSLPGHTAEDVKNAVGVLIGGLEWNDNTVRVSETLQRFAWRSSNENGRPPLTPKQKREMAGTIRSEV
notes: also called His-tagged NS1; recombinant NS1
Take B1: the binding result was “binds”.
